Here are results for eight molecules from article PMC11897886 (Nucleic Acids Research, 2024).

Sequences and labels used below:
T1: CBP-Upf1-HD (S. cerevisiae, UniProt P30771 221-851)
T1 sequence: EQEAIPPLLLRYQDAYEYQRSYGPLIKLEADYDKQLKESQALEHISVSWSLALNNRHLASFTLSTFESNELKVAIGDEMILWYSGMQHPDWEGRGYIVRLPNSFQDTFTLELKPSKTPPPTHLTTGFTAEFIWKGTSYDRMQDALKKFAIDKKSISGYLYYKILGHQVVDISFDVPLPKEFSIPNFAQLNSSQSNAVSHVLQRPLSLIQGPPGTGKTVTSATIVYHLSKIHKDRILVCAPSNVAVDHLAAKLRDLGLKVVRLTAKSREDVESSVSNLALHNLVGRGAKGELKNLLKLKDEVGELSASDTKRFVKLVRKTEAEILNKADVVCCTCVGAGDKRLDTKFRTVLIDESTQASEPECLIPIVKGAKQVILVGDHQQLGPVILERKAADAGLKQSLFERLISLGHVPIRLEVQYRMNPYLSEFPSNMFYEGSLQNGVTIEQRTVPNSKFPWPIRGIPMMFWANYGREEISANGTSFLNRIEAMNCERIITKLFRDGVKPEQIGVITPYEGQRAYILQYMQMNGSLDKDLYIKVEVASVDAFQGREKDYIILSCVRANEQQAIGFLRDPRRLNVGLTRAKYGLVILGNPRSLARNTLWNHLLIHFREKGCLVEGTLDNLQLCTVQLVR

T2: CBP-Upf1-CH-HD (S. cerevisiae, UniProt P30771 54-851)
T2 sequence: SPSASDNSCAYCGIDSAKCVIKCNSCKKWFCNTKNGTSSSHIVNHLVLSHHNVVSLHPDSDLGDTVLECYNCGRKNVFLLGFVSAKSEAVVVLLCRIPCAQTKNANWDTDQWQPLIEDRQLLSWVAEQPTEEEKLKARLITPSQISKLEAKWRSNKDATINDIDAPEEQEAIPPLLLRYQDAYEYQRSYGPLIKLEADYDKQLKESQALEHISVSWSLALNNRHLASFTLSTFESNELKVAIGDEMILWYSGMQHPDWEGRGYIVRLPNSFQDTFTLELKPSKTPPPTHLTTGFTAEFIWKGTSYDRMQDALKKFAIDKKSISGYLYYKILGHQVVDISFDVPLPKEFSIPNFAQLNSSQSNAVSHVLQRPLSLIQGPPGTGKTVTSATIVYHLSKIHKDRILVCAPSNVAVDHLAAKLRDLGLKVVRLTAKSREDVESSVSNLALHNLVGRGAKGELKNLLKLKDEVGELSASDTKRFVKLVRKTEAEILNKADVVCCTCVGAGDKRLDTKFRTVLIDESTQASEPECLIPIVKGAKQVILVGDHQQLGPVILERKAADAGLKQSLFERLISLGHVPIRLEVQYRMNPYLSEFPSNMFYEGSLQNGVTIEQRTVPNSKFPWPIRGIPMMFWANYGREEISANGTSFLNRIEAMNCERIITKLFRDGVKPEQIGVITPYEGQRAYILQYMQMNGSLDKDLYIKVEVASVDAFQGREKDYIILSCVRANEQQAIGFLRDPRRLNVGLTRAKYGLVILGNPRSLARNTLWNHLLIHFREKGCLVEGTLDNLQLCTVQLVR

T3: CBP-Upf1-HD-Ct (S. cerevisiae, UniProt P30771 221-971)
T3 sequence: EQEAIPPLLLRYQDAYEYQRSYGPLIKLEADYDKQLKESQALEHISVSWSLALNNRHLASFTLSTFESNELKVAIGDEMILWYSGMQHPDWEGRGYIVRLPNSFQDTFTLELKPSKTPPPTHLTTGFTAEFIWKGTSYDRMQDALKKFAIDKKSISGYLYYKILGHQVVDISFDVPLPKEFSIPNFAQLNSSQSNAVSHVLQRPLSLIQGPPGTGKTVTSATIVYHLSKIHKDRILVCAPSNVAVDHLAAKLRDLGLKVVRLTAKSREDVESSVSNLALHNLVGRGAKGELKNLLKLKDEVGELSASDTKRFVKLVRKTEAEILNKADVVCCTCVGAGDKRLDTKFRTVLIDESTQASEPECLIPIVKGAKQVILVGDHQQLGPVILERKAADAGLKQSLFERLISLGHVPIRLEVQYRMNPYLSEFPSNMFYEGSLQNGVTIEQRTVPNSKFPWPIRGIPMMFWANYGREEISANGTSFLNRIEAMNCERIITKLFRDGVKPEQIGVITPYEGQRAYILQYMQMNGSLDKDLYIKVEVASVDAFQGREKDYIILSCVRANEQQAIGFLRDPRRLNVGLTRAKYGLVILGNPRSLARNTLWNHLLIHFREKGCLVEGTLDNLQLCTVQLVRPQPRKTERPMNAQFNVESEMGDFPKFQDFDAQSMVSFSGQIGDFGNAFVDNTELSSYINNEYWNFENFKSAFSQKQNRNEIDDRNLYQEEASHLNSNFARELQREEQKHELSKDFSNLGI

T4: CBP-Upf1-FL (S.c. Upf1 full-length) (S. cerevisiae, UniProt P30771 1-971)
T4 sequence: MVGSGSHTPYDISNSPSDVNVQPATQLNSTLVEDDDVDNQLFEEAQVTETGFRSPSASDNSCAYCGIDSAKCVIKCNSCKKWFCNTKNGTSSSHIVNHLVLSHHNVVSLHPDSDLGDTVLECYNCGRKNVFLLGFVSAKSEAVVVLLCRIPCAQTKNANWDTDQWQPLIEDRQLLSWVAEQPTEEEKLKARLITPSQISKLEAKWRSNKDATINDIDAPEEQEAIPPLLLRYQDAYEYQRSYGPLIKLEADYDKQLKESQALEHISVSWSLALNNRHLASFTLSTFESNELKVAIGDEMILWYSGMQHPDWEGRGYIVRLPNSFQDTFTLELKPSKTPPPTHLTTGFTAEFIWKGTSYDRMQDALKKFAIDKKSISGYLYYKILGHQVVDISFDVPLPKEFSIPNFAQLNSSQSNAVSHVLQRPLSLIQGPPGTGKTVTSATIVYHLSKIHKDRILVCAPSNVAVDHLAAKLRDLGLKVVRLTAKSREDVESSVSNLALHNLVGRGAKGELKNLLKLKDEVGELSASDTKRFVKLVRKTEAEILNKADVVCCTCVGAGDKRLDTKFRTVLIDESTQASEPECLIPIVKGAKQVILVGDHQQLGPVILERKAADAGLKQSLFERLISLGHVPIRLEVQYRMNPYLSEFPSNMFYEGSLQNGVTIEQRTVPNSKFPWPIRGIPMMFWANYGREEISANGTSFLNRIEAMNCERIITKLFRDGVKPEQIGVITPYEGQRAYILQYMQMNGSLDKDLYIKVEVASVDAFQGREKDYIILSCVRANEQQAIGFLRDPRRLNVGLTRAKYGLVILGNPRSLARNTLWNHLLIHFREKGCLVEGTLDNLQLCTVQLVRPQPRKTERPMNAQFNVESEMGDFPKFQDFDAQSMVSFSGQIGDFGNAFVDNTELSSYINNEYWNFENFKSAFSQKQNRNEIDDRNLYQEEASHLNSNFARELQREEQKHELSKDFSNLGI

B1: TS-Nmd4-His (full-length Nmd4, aa 1-218) (natural protein)
chain: MTQYNFIIDASAFEKGLGNIKRWCSDCTEAVTLNFYIPTFTLNELDFLQQRRKSFAARESLKFIDRLDDSKFANLKVFIEFPEVLDIILWSDVMEHNDSSGKINIAKLPKRLKNLLKSCIYKCYLEGNEGLHWFLISEDPQIREMAMQCNIPSCSIVDVDSILSKDMNDKSFRESEKFNNMMLKNGTKEESENGREIIRTNFNKTVYASRGTGELWSP
B2: GST-tagged full-length Dcp1 (aa 1-231) (natural protein)
chain: MTGAATAAENSATQLEFYRKALNFNVIGRYDPKIKQLLFHTPHASLYKWDFKKDEWNKLEYQGVLAIYLRDVSQNTNLLPVSPQEVDIFDSQNGSNNIQVNNGSDNSNRNSSGNGNSYKSNDSLTYNCGKTLSGKDIYNYGLIILNRINPDNFSMGIVPNSVVNKRKVFNAEEDTLNPLECMGVEVKDELVIIKNLKHEVYGIWIHTVSDRQNIYELIKYLLENEPKDSFA
B3: GST-Dcp1/Dcp2-S heterodimer (complex)
chain 1: B2 chain
chain 2: MSLPLRHALENVTSVDRILEDLLVRFIINCPNEDLSSVERELFHFEEASWFYTDFIKLMNPTLPSLKIKSFAQLIIKLCPLVWKWDIRVDEALQQFSKYKKSIPVRGAAIFNENLSKILLVQGTESDSWSFPRGKISKDENDIDCCIREVKEEIGFDLTDYIDDNQFIERNIQGKNYKIFLISGVSEVFNFKPQVRNEIDKIEWFDFKKISKTMYKSNIKYYLINSMMRPLSMWLRHQRQIKNEDQLKSYAEEQLKLLLGITKEEQIDPGRELLNMLHTAVQANSNNNAVSNGQVPSSQELQHLKEQSGEHNQQK
B4: GST-Dcp2-UBM (aa 434-720) (domain or fragment)
chain: GYSSSSPGQLLDILNSKKPDSNVQSSKKPKLKILQRGTDLNSIKQNNNDETAHSNSQALLDLLKKPTSSQKIHASKPDTSFLPNDSVSGIQDAEYEDFESSSDEEVETARDERNSLNVDIGVNVMPSEKDSRRSQKEKPRNDASKTNLNASAESNSVEWGPGKSSPSTQSKQNSSVGMQNKYRQEIHIGDSDAYEVFESSSDEEDGKKLEELEQTQDNSKLISQDILKENNFQDGEVPHRDMPTESNKSINETVGLSSTTNTVKKVPKVKILKRGETFASLANDKKA
B5: GST-Dcp2-UBM2 (aa 687-720) (domain or fragment)
chain: VGLSSTTNTVKKVPKVKILKRGETFASLANDKKA
B6: GST-Dcp2-UBM1 (aa 434-508) (domain or fragment)
chain: GYSSSSPGQLLDILNSKKPDSNVQSSKKPKLKILQRGTDLNSIKQNNNDETAHSNSQALLDLLKKPTSSQKIHAS
B7: GST-Ebs1 (aa 1-591) (domain or fragment)
chain: MEPSNTQKEDLPTAFNGIKSQLNSILKSNQLFQDYALLNGFLAFVHSKLNAAILTSIESQCGKSFAADLDSFDQSSISSILDFSWESVHYPIFKWFQMWRNYILFEKENKKQQTKFIDFRKMNSKMLKFFKTVQNFYVNVINTVYKKYDISVLLPKRIIQDLKLSDIENTTNVGDILAVKTFNSSSPLAHLIPTLFHRCLLFLGTAYRYKTLLEEISNKYSISNFKKSLDFFRLASLVLPSAGETYSQAGAIFLQTGNLGIAVFNFVKGMMTKMPSPVSIKNFGALMVDNKSSLNRSLHTTIMNTYLQESKGPRTPAKEILEFYFLGLFGSVWSPTSWRDDTKPNQLNNGIKLRHLENALYETMSARYLNNIKTIFHNLIITIGGFHLLLKRRSDVSAKTLKDLRSNELDYLNFAFKYIAHILNDIVKESWSENPEVSEILGMVRIINCWIKANPMVLQYSQSNLEFVNALAYLINDIVKKKPSPSFSITEHIPKRTYWFEEDLMVKGLSFVNFQLSDFDDYEKILEMDHSLDRLIGNPPLCDKLSASSEMLLRLQAVVNISSQLLQNNNCGVEWSDNKSRYIFNKKIGFK
B8: HisSUMO-tagged Ebs1 (aa 1-591) (domain or fragment)
chain: B7 chain

One assay has as its target T1, CBP-Upf1-HD. The assay can be described thus: pull-down.
As to B1, the binding result is “binds”.

With B2, the binding result was “binds”.

For the molecule B3, the binding result is on record as “binds”.

The next assay deals with T2, CBP-Upf1-CH-HD. The assay can be described thus: pull-down.
For the molecule B1, the binding result is “binds”.

In the case of B4, the binding result is reported as “binds”.

For the molecule B5, the binding result is on record as “binds”.

On to B6, for which the binding result is “binds”.

With B2, the binding result is “binds”.

As for B3, the binding result is reported as “binds”.

For a further assay, the target named is T3, CBP-Upf1-HD-Ct. The experiment in a line: pull-down.
Take B1: the binding result is “binds”.

On to B2, for which the binding result is “binds”.

As to B3, the binding result is “binds”.

In a further assay the target is T4, CBP-Upf1-FL (S.c. Upf1 full-length). The assay can be described thus: pull-down.
In the case of B1, the binding result was “binds”.

Turning to B4, the binding result was “binds”.

Turning to B7, the binding result is listed as “binds”.

Take B8: the binding result is given as “binds”.

On to B5, for which the binding result was “binds”.

Consider B6, for which the binding result is given as “binds”.

In the case of B2, the binding result is listed as “binds”.

As to B3, the binding result is given as “binds”.
